Results taken from US7560106B2, “Rationally designed heparinases derived from heparinase I and II and methods of sequencing therewith” (Massachusetts Institute of Technology, priority 1998, dated 2009).
Changes are numbered by the printed parent chain. Names may count otherwise. “Also recorded” adds a separate entry of the source.

B1: D210A/D212A: heparinase I CB-1 double mutant (protein, UniProt Q05819 22-384, looked up, variant D210A D212A)
Heparin lyase I: QQKKSGNIPYRVNVQADSAKQKAIIDNKWVAVGINKPYALQYDDKLRFNGKPSYRFELKAEDNSLEGYAAGETKGRTELSYSYATTNDFKKFPPSVYQNAQKLKTVYHYGKGICEQGSSRSYTFSVYIPSSFPDNATTIFAQWHGAPSRTLVATPEGEIKTLSIEEFLALYDRMIFKKNIAHDKVEKKAKAGKITYVAGKPNGWKVEQGGYPTLAFGFSKGYFYIKANSDRQWLTDKADRNNANPENSEVMKPYSSEYKTSTIAYKMPFAQFPKDCWITFDVAIDWTKYGKEANTILKPGKLDVMMTYTKNKKPQKAHIVNQQEILIGRNDDDGYYFKFGIYRVGNSTVPVTYNLSGYSETAR
B2: G213A/T216A: heparinase I CB-1 double mutant (protein, UniProt Q05819 22-384, looked up, variant G213A T216A)
Heparin lyase I: B1 Heparin lyase I with A189D, A191D, G192A, T195A
B3: T216A: heparinase I CB-1 mutant, threonine 216 changed to alanine (protein, UniProt Q05819 22-384, looked up, variant T216A)
Heparin lyase I: B1 Heparin lyase I with A189D, A191D, T195A
B4: G213A: heparinase I CB-1 mutant, glycine 213 changed to alanine (protein, UniProt Q05819 22-384, looked up, variant G213A)
Heparin lyase I: B1 Heparin lyase I with A189D, A191D, G192A
B5: Y379A: heparinase I CB-2 mutant, tyrosine 379 changed to alanine (protein, UniProt Q05819 22-384, looked up, variant Y379A)
Heparin lyase I: B1 Heparin lyase I with A189D, A191D, Y358A
B6: T373A: heparinase I CB-2 mutant, threonine 373 changed to alanine (protein, UniProt Q05819 22-384, looked up, variant T373A)
Heparin lyase I: B1 Heparin lyase I with A189D, A191D, T352A
B7: T382A: heparinase I CB-2 mutant, threonine 382 changed to alanine (protein, UniProt Q05819 22-384, looked up, variant T382A)
Heparin lyase I: B1 Heparin lyase I with A189D, A191D, T361A
B8: S377A: heparinase I mutant where serine 377 is mutated to alanine; calcium-independent (protein, UniProt Q05819 22-384, looked up, variant S377A)
Heparin lyase I: B1 Heparin lyase I with A189D, A191D, S356A
B9: G378A: heparinase I CB-2 mutant, glycine 378 changed to alanine (protein, UniProt Q05819 22-384, looked up, variant G378A)
Heparin lyase I: B1 Heparin lyase I with A189D, A191D, G357A
B10: D210A: heparinase I CB-1 mutant, aspartate 210 changed to alanine (protein, UniProt Q05819 22-384, looked up, variant D210A)
Heparin lyase I: B1 Heparin lyase I with A191D
B11: D212A: heparinase I CB-1 mutant, aspartate 212 changed to alanine (protein, UniProt Q05819 22-384, looked up, variant D212A)
Heparin lyase I: B1 Heparin lyase I with A189D
B12: E381A/T382A: heparinase I CB-2 double mutant (protein, UniProt Q05819 22-384, looked up, variant E381A T382A)
Heparin lyase I: B1 Heparin lyase I with A189D, A191D, E360A, T361A
B13: E207A/D210A: heparinase I CB-1 double mutant (protein, UniProt Q05819 22-384, looked up, variant E207A D210A)
Heparin lyase I: B1 Heparin lyase I with E186A, A191D
B14: E207A/D212A: heparinase I CB-1 double mutant (protein, UniProt Q05819 22-384, looked up, variant E207A D212A)
Heparin lyase I: B1 Heparin lyase I with E186A, A189D
B15: D212A/T216A: heparinase I CB-1 double mutant (protein, UniProt Q05819 22-384, looked up, variant D212A T216A)
Heparin lyase I: B1 Heparin lyase I with A189D, T195A

experiment: Heparinase I UV 232 nm activity assay as a function of heparin concentration (Kcat, Km); format: biochemical, porcine; conditions: not given
Text: Heparinase II Activity Assay. Native heparinase II from Flavobacterium heparinum, was purified as described previously (Godavarti, R., and Sasisekharan, R (1996c) Biochem. Biophys. Res. Comm. 229, 770-777). The UV 232 nm assay to quantify native heparinase II enzymatic activity was similar to that reported for heparinase I (Bernstein, H., Yang, V. C., Cooney, C. L., Langer, R. (1988) Meth. Enzym. 137, 515-29). Briefly, the course of the reaction is monitored by measuring the increase in absorbance at 232 nm as a function of time under saturating substrate concentrations. With heparin as the substrate, the reaction was carried out at a concentration of 4 mg/ml in 50 mM sodium phosphate buffer, pH 7.3. With 2 mg/ml heparan sulfate, the reaction was measured in 50 mM sodium phosphate buffer, pH 6.9 (Sasisekharan, R., Moses, M. A., Nugent, M. A., Cooney, C. L., Langer, R. (1994) Proc. Natl. Acad. Sci., USA 91, 1524-1528). The temperature for all enzymatic activity measurements was kept constant at 35° C.
Heparinase I Activity Assay. The UV 232 nm assay to quantify heparinase I enzymatic activity was similar to that described in Example 1. With heparin as the substrate, the reaction was carried out at a concentration of 4 mg/ml in 100 mM MOPS, 5 mM calcium acetate, pH 7.0. The temperature for all enzymatic activity measurements was kept constant at 30° C. For the inactivation kinetic profiles, activity was measured as outlined above at precise time points.
(§1) Heparinase I Activity Assays: The UV 232 nm assay was used as described in Example 1. When measuring the enzyme activity as a function of heparin concentration, heparin concentrations varied from 0 to 4 mg/ml at a fixed calcium concentration of 5 mM (100 mM MOPS buffer/5 mM calcium acetate, pH 7.0). The data was then fit to an non-linear equation to determine Kcat and Km of heparinases I. Heparinase mutant activity was also investigated as a function of calcium concentration ranging from 0 to 10 mM. […] Activity is expressed as IU-μmol product formed/min using ∈=−3800-M^−1CM^−1.

Molecule | decrease in Kcat compared to wild-type r-heparinase I
B1 | 4.5 fold
B2 | 5 fold
B3 | ~2 fold
B4 | about 3 fold
B5 | about 10 fold

same assay, conditions: compared to wild-type r-heparinase I

Molecule | effect on enzyme activity (kcat), in words
B6 | no significant decrease in enzyme activity
B7 | decreased only by about 1 half
B8 | no significant decrease in enzyme activity
B9 | decreased only by about 1 half

same assay, conditions: heparin 0 to 4 mg/ml, 5 mM calcium acetate, 100 mM MOPS, pH 7.0

Molecule | Kcat [s⁻¹]
B10 | 74
B1 | 21
B6 | 85
B11 | 65
B12 | 10
B7 | 65
B2 | 19
B3 | 50
B13 | 65
B8 | 71
B4 | 28
B5 | 9
B9 | 41
B14 | 58
B15 | 52

same assay, conditions: heparin 0 to 4 mg/ml, 5 mM calcium acetate, pH 7.0

Molecule | Km [µM]
B10 | 2.64
B1 | 0.32
B6 | 0.96
B11 | 1.94
B12 | 1.75
B7 | 1.64
B2 | 0.83
B3 | 1.45
B13 | 2.77
B8 | 2.74
B4 | 0.97
B5 | 0.32
B9 | 0.74
B14 | 0.93
B15 | 1.52

experiment: Heparinase I activity as a function of calcium concentration (K0.5, calcium dependence); format: biochemical; conditions: not given
Description: as §1

Molecule | dependence of enzyme activity on calcium
B8 | loss of dependence on calcium; also recorded: calcium-independent

same assay, conditions: Table 4 second K0.5 column

Molecule | K0.5 [µM]
B10 | 310
B1 | 700
B6 | 50
B11 | 370
B12 | 180
B7 | 100
B2 | 2200
B3 | 430
B13 | 470
B8 | 50
B4 | 740
B5 | 230
B9 | 80
B14 | 710
B15 | 320

same assay, conditions: calcium concentration at which half of the maximum enzyme activity was observed; calcium 0 to 10 mM; Table 4 first K0.5 column

Molecule | K0.5 [µM]
B10 | 310
B1 | 700
B6 | 50
B11 | 370
B12 | 180
B7 | 100
B2 | 2200
B3 | 430
B13 | 470
B8 | 50
B4 | 740
B5 | 230
B9 | 80
B14 | 710
B15 | 320

experiment: Heparin-POROS affinity chromatography; format: binding; conditions: not given
Description: Heparin-POROS chromatography: About 30-40 μg of -L r-heparinase I and the various mutant enzymes were injected into a heparin POROS (4.6 mm×100) column (PerSeptive BioSystems, Framingham, Mass.) connected to BioCAD system (PerSeptive BioSystems). Proteins were eluted using a linear gradient of […] NaCl in 10 min (10 mM Tris, 1 mM EDTA pH 7.0) and monitored at 210 nm. EDTA was added to chelate any calcium ions that may be present in the buffers.

elution salt concentration / heparin binding relative to wild-type r-heparinase I, in words | Molecule
comparable to wild-type r-heparinase I | B6
comparable to wild-type r-heparinase I | B7
comparable to wild-type r-heparinase I | B8
comparable to wild-type r-heparinase I | B5
comparable to wild-type r-heparinase I | B9

same assay, conditions: salt concentration at which enzyme elutes from heparin-POROS column; 10 mM Tris, 1 mM EDTA pH 7.0

Molecule | NaCl [mM]
B10 | 500
B1 | 515
B6 | 480
B11 | 498
B12 | 505
B7 | 488
B2 | 498
B3 | 479
B13 | 513
B8 | 486
B4 | 476
B5 | 489
B9 | 489
B14 | 513
B15 | 497
